This note sets out measurements from patent US20240417437A1, “Linker Polypeptides” (Trutino Biosciences Inc., priority 2021, published 2024).

In assay [1] the target is collagen cross-linked to agarose (Sigma). Briefly: collagen-agarose pulldown, anti-mouse IL-2 immunoblot, band quantitation.
Assay [2] has the same target. Put plainly: collagen-agarose pulldown, anti-mouse IL-2 immunoblot, band intensity of the collagen-bound lane (Input (2%) band: 16707). (In western blotting, separated proteins are transferred to a membrane and probed.)
Assay [3] shares this target. Put plainly: pulldown with collagen-agarose, immunoblot quantified with iBright imaging system; reference Construct B.
The target is the same in assay [4]. Put plainly: collagen-agarose pulldown, anti-mouse IL-2 immunoblot, band intensity of the collagen-bound lane (Input (2%) band: 15267).
Assay [5] has the same target. Briefly: pulldown with collagen-agarose, immunoblot quantified with iBright imaging system.
For assay [6], the target named is biotin-labelled collagen IV (Prospec). Briefly: EDANS peptide (20 µM) on biotin-collagen IV-coated streptavidin magnetic beads, fluorescence Ex 340/Em 490, pH 7.5.

Positions count from the first letter of the chain named. Numbers in names are those of the source. Where no end group is shown, it is not given here. The star is where a group is joined. EDANS = O=S(=O)(O)c1cccc2c(NCCN*)cccc12

B1: Construct B - no TME: mIL2-2x(SG4)-MMPcs1-2x(G4S)-mIL2Ralpha(1-215)-mIgG1Fc (Fc fusion)
chain: APTSSSTSSSTAEAQQQQQQQQQQQQHLEQLLMDLQELLSRMENYRNLKLPRMLTFKFYLPKQATELKDLQCLEDELGPLRHVLDLTQSKSFQLEDAENFISNIRVTVVKLKGSDNTFECQFDDESATVVDFLRRWIAFCQSIISTSPQSGGGGSGGGGGPLGVRGGGGGSGGGGSELCLYDPPEVPNATFKALSYKNGTILNCECKRGFRRLKELVYMRCLGNSWSSNCQCTSNSHDKSRKQVTAQLEHQKEQQTTTDMQKPTQSMHQENLTGHCREPPPWKHEDSKRIYHFVEGQSVHYECIPGYKALQRGPAISICKMKCGKTGWTQPQLTCVDEREHHRFLASEESQGSRNSSPESETSCPITTTDFPQPTETTAMTETFVLTMEYKGCKPCICTVPEVSSVFIFPPKPKDVLTITLTPKVTCVVVDISKDDPEVQFSWFVDDVEVHTAQTQPREEQFNSTFRSVSELPIMHQDWLNGKEFKCRVNSAAFPAPIEKTISKTKGRPKAPQVYTIPPPKEQMAKDKVSLTCMITDFFPEDITVEWQWNGQPAENYKNTQPIMDTDGSYFVYSKLNVQKSNWEAGNTFTCSVLHEGLHNHHTEKSLSHSPGK
As to B1, in assay [1], the Bound (% input) is 0.3 % of input. For the same molecule, in assay [2], the Bound amounted to 2310.

B2: Construct GG (collagen IV): mIL2-SGG-KLWVLPK(SEQ ID NO: 200)-MMPcs1-2x(G4S)-mIL2Ra(1-215)-muIgG1Fc (Fc fusion)
chain: B1 chain with G153K, G154L, S155W, G156V, G157L, G158P, G159K
With B2, in assay [3], the fold of bound fraction over Construct B is 2.5 fold. In assay [4], the Bound is 5190. Moreover, the Bound (% input) in assay [1] was 0.7 % of input. The fraction bound (of input) in assay [5] is < 1 % of input.

GGGSGGGGPLGVRG-{EDANS} [P1] returned an RFU in assay [6] of 297 RFU.

The molecule GGGSGLHERHLNNN-{EDANS} [Peptide 15 (…-*, linker peptide with collagen I targeting sequence)] gave an RFU in assay [6] of 490 RFU.

As to KLWVLPKGPLGVRG-{EDANS} [Peptide 14 (…-*, next generation MMP cleavable linker with collagen IV targeting sequence)], the RFU in assay [6] was 4560 RFU.
